Measurements reported in article PMC8439105 (Current biology : CB, 2021).

B1: FYCO1 (endogenous, human cells) (natural protein)
chain: MASTNAESQLQRIIRDLQDAVTELSKEFQEAGEPITDDSTSLHKFSYKLEYLLQFDQKEKATLLGNKKDYWDYFCACLAKVKGANDGIRFVKSISELRTSLGKGRAFIRYSLVHQRLADTLQQCFMNTKVTSDWYYARSPFLQPKLSSDIVGQLYELTEVQFDLASRGFDLDAAWPTFARRTLTTGSSAYLWKPPSRSSSMSSLVSSYLQTQEMVSNFDLNSPLNNEALEGFDEMRLELDQLEVREKQLRERMQQLDRENQELRAAVSQQGEQLQTERERGRTAAEDNVRLTCLVAELQKQWEVTQATQNTVKELQTCLQGLELGAAEKEEDYHTALRRLESMLQPLAQELEATRDSLDKKNQHLASFPGWLAMAQQKADTASDTKGRQEPIPSDAAQEMQELGEKLQALERERTKVEEVNRQQSAQLEQLVKELQLKEDARASLERLVKEMAPLQEELSGKGQEADQLWRRLQELLAHTSSWEEELAELRREKKQQQEEKELLEQEVRSLTRQLQFLETQLAQVSQHVSDLEEQKKQLIQDKDHLSQQVGMLERLAGPPGPELPVAGEKNEALVPVNSSLQEAWGKPEEEQRGLQEAQLDDTKVQEGSQEEELRQANRELEKELQNVVGRNQLLEGKLQALQADYQALQQRESAIQGSLASLEAEQASIRHLGDQMEASLLAVRKAKEAMKAQMAEKEAILQSKEGECQQLREEVEQCQQLAEARHRELRALESQCQQQTQLIEVLTAEKGQQGVGPPTDNEARELAAQLALSQAQLEVHQGEVQRLQAQVVDLQAKMRAALDDQDKVQSQLSMAEAVLREHKTLVQQLKEQNEALNRAHVQELLQCSEREGALQEERADEAQQREEELRALQEELSQAKCSSEEAQLEHAELQEQLHRANTDTAELGIQVCALTVEKERVEEALACAVQELQDAKEAASREREGLERQVAGLQQEKESLQEKLKAAKAAAGSLPGLQAQLAQAEQRAQSLQEAAHQELNTLKFQLSAEIMDYQSRLKNAGEECKSLRGQLEEQGRQLQAAEEAVEKLKATQADMGEKLSCTSNHLAECQAAMLRKDKEGAALREDLERTQKELEKATTKIQEYYNKLCQEVTNRERNDQKMLADLDDLNRTKKYLEERLIELLRDKDALWQKSDALEFQQKLSAEERWLGDTEANHCLDCKREFSWMVRRHHCRICGRIFCYYCCNNYVLSKHGGKKERCCRACFQKLSEGPGSPDSSGSGTSQGEPSPALSPASPGPQATGGQGANTDYRPPDDAVFDIITDEELCQIQESGSSLPETPTETDSLDPNAAEQDTTSTSLTPEDTEDMPVGQDSEICLLKSGELMIKVPLTVDEIASFGEGSRELFVRSSTYSLIPITVAEAGLTISWVFSSDPKSISFSVVFQEAEDTPLDQCKVLIPTTRCNSHKENIQGQLKVRTPGIYMLIFDNTFSRFVSKKVFYHLTVDRPVIYDGSDFL

Experiments:
[1] = molecular target: His-tagged LC3B-WT (human, UniProt Q9GZQ8 1-120); assay: BLI
[2] = molecular target: His-tagged LC3B-T50A (human, UniProt Q9GZQ8 1-120, T50A); assay: BLI
[3] = molecular target: His-tagged LC3B-T50E (human, UniProt Q9GZQ8 1-120, T50E); assay: BLI
[4] = molecular target: HA-tagged LC3B-T50E (phospho-mimetic mutant) (UniProt Q9GZQ8 1-120, T50E); assay: affinity purification with mass spectrometry
[5] = molecular target: HA-tagged LC3B-T50A (phospho-deficient mutant) (UniProt Q9GZQ8 1-120, T50A); assay: affinity purification with mass spectrometry

Binder	Kd [1]	Kd [2]	Kd [3]	fold change of binding against HA-LC3B-WT [4]	fold change of binding against HA-LC3B-WT [5]
GQGANTDYRPPDDAVFDIITDEELCQIQESGSSL [FYCO1 peptide (1265–1298 amino acids of the human protein)]	~4.1 µM	~6 µM	~28 µM		
B1				~5 fold lower	~2 fold higher
